Data as given in publication PMC11617691, “‘GGFGGQ’ repeats in Hfq of Acinetobacter baumannii are essential for nutrient utilization and virulence”.

What was measured:
Hfq WT = target: T1, Hfq WT (Acinetobacter baumannii, UniProt V5VC31 1-168); test: fluorescence anisotropy; Kd printed only in figure; TNK buffer: 10 mM Tris-HCl pH 7.5, 50 mM NaCl, 50 mM KCl; 50 nM D16-FAM; 30 °C; 100 µl; details: protein: recombinant; tags: none (tag-free, stop codon in pET-28); chain copies: 6; label: 5'-FAM
T1 sequence: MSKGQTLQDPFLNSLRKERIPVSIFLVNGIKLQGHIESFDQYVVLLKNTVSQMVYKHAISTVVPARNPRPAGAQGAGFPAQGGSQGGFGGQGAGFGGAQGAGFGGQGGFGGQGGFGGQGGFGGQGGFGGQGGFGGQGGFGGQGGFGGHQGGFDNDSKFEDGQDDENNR

Hfq66 = target: T2, Hfq66 (Acinetobacter baumannii, UniProt V5VC31 1-66); test: fluorescence anisotropy; higher affinity (lower Kd) than WT; Kd printed only in figure; TNK buffer: 10 mM Tris-HCl pH 7.5, 50 mM NaCl, 50 mM KCl; 50 nM D16-FAM; 30 °C; 100 µl; details: protein: recombinant; tags: none (tag-free); chain copies: 6; label: 5'-FAM
T2 sequence: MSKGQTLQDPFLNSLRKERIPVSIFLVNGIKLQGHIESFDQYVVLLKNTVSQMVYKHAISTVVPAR

CGAAUUUUUUAAGUGC (ssRNA) [D16-FAM]: binds (Hfq WT); binds (Hfq66).
